# According to US20240018240A1 (Hoffmann-La Roche, published 2024):
# Key:
# [1] = target: T1, Human CD3ε stalk-Fc(knob)-Avi/CD3δ stalk-Fc(hole) (human); assay: SPR single cycle kinetics (Biacore T200, 25°C); TCB captured by anti-PG antibody on CM3 chip, human CD3ε/δ as analyte
# T1 construct: Heterodimer of CD3 delta and CD3 epsilon ectodomains fused to a human Fc domain with knob-into-hole modifications and C-terminal Avi-tag; also called human CD3ε/δ; CD3ε/δ
# Method: (§1) The binding kinetics of the PLAP TCB molecules generated in Example 17 were characterized by the single cycle kinetic (SSK) assay. For this assay, again the SPR Biacore T200 was used. The immobilization was performed at 25° C. with HBS-N pH 7.4 as a running buffer (Cytiva #BR100670). The anti-PG antibody (see Example 3) was immobilized by amine coupling (using amine coupling kit, Cytiva #BR100050) at a density of >5000 RU on a CM3 Chip (Cytiva #29104990). The anti-PG antibody stock solution was diluted to a concentration of 25 μg/mL in a 10 mM sodium acetate buffer of pH 5.0 (Cytiva #BR100351). After the immobilization the analysis was performed at 25° C., and PBS-P+(Cytiva #28995084) was used as a running and a dilution buffer. The 3 nM solutions of TCB molecule samples in PBS-P+ were captured with anti-PG antibody on a CM3 sensor chip.
# (§2) The derived kinetic rate constants and corresponding affinity values (equilibrium dissociation constant KD) are summarized in Table 26 for the CD3 binder and in Table 27 for the PLAP binder. The data were analyzed with the Biacore T200 Evaluation and Excel software.
# [2] = target: T2, Human PLAP (soluble, as injected in SPR) (human, UniProt P05187 23-506); assay: SPR single cycle kinetics (Biacore T200, 25°C); TCB captured by anti-PG antibody on CM3 chip, human PLAP as analyte
# T2 construct: also called PLAP target
# T2 sequence (P05187 23-506 limits assumed): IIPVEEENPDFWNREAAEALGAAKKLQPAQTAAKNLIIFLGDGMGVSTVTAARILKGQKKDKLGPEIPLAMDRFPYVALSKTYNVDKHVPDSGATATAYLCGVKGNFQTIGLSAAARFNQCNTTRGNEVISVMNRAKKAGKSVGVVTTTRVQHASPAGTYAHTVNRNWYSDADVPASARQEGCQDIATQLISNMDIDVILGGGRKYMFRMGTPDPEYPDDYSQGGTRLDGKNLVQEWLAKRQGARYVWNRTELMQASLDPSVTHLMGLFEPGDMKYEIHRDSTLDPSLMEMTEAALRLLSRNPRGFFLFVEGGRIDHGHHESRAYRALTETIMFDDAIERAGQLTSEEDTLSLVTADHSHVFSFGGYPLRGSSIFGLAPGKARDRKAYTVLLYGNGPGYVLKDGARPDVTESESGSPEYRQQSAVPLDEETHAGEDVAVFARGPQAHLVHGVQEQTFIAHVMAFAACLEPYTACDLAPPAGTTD
# Method: as §1, §2
# [3] = target: T1, Human CD3ε stalk-Fc(knob)-Avi/CD3δ …; assay: SPR RAC assay (Biacore T200, 25°C); TCB captured by anti-PG antibody on CM3 chip, 200 nM human CD3ε/δ injected after 100 nM human PLAP
# Method: (§3) SPR experiments were performed on a Biacore T200 instrument (GE Healthcare). For the immobilization. HBS-N pH 7.4 was used as a running buffer (Cytiva #BR100670). Anti-PG antibody (see Example 3) was immobilized by amine coupling (using amine coupling kit, Cytiva #BR100050) at a density of >6000 RU on a CM3 Chip (Cytiva #29104990). The anti-PG antibody stock solution was diluted to a concentration of 25 μg/mL in a 10 mM sodium acetate buffer of pH 5.0 (Cytiva #BR100351). After the immobilization the analysis was performed at 25° C., and using PBS-P+ (Cytiva #28995084) as a running and a dilution buffer. The 5 nM solutions of TCB molecule samples in PBS-P+ were captured for 30 sec at a flow rate 5 μl/min. Then a 100 nM solution of human PLAP was injected for 90 sec association time and 30 sec dissociation time at a flow rate of 8 μl/min. Thereafter, a 200 nM solution of human CD3ε/δ (see Example 3, SEQ ID NOs 24 and 25) was injected for 90 sec association time and 30 sec dissociation time at a flow rate of 8 μl/min. The regeneration of the surface followed by two 60 sec regeneration steps with a 10 mM NaOH solution. The data were analyzed with the Biacore T200 Evaluation and Excel software. For the calculation of relative active concentration (RAC) the binding report point (BRP) was used. To calculate the RAC, the target and antibody concentrations were referenced to the unstressed sample (−80° C.) as 100% comparison. For the normalization of the protein concentration, reference was made to anti-PG antibody capturing (RAC values).
# [4] = target: T2, Human PLAP (soluble, as injected in SPR); assay: SPR RAC assay (Biacore T200, 25°C); TCB captured by anti-PG antibody on CM3 chip, 100 nM human PLAP injected
# Method: as §3
Kd [1] [nM],koff [1] [s⁻¹],kon [1] [M⁻¹ s⁻¹],Kd [2] [nM],koff [2] [s⁻¹],kon [2] [M⁻¹ s⁻¹],"RAC [%] CD3 binding, stress A [3] [%]","RAC [%] CD3 binding, stress B [3] [%]","RAC [%] CD3 binding, unstressed [3] [%]","RAC [%] PLAP binding, stress A [4] [%]","RAC [%] PLAP binding, stress B [4] [%]","RAC [%] PLAP binding, unstressed [4] [%]",Binder
6.3,0.0017,269000,0.0181,4.45e-05,2.46e+06,96,81,100,100,102,100,"PLAP H2 CD3orig TCB (bispecific antibody, human IgG1, kappa, L234A L235A) heavy 1: not shown heavy 2: QVQLQESGPGLVKPSETLSLTCTVSGFSLTSYGVSWIRQPAGKGLEWIGVIWEDGSTNYHSALISRVTMSVDTSKNQFSLKLSSVTAADTAVYYCARPHYGSSYVGAMEYWGAGTTVTVSSASTKGPSVFPLAPSSKSTSGGTAALGCLVEDYFPEPVTVSWNSGALTSGVHTFPAVLQSSGLYSLSSVVTVPSSSLGTQTYICNVNHKPSNTKVDEKVEPKSCDKTHTCPPCPAPEAAGGPSVFLFPPKPKDTLMISRTPEVTCVVVDVSHEDPEVKFNWYVDGVEVHNAKTKPREEQYNSTYRVVSVLTVLHQDWLNGKEYKCKVSNKALGAPIEKTISKAKGQPREPQVCTLPPSRDELTKNQVSLSCAVKGFYPSDIAVEWESNGQPENNYKTTPPVLDSDGSFFLVSKLTVDKSRWQQGNVFSCSVMHEALHNHYTQKSLSLSP light 1: DIQMTQSPSSLSASVGDRVTITCRASENIYSYVAWYQQKPGKAPKLLIYNAKSLASGVPSRFSGSGSGTDFTLTISSLQPEDFATYYCQHHYVSPWTFGGGTKLEIKRTVAAPSVFIFPPSDRKLKSGTASVVCLLNNFYPREAKVQWKVDNALQSGNSQESVTEQDSKDSTYSLSSTLTLSKADYEKHKVYACEVTHQGLSSPVTKSFNRGEC light 2: EVQLLESGGGLVQPGGSLRLSCAASGFTFSTYAMNWVRQAPGKGLEWVSRIRSKYNNYATYYADSVKGRFTISRDDSKNTLYLQMNSLRAEDTAVYYCVRHGNFGNSYVSWFAYWGQGTLVTVSSASVAAPSVFIFPPSDEQLKSGTASVVCLLNNFYPREAKVQWKVDNALQSGNSQESVTEQDSKDSTYSLSSTLTLSKADYEKHKVYACEVTHQGLSSPVTKSFNRGEC"
6.3,0.00167,267000,0.009,3.87e-05,4.32e+06,97,82,100,99,100,100,"PLAP H3 CD3orig TCB (bispecific antibody, human IgG1, kappa, L234A L235A) heavy 1: not shown heavy 2: QVQLQESGPGLVKPSETLSLTCTVSGFSLTSYGVSWIRQPPGKGLEWIGVIWEDGSTNYNPSLKSRVTISVDTSKNQFSLKLSSVTAADTAVYYCARPHYGSSYVGAMEYWGAGTTVTVSSASTKGPSVFPLAPSSKSTSGGTAALGCLVEDYFPEPVTVSWNSGALTSGVHTFPAVLQSSGLYSLSSVVTVPSSSLGTQTYICNVNHKPSNTKVDEKVEPKSCDKTHTCPPCPAPEAAGGPSVFLFPPKPKDTLMISRTPEVTCVVVDVSHEDPEVKFNWYVDGVEVHNAKTKPREEQYNSTYRVVSVLTVLHQDWLNGKEYKCKVSNKALGAPIEKTISKAKGQPREPQVCTLPPSRDELTKNQVSLSCAVKGFYPSDIAVEWESNGQPENNYKTTPPVLDSDGSFFLVSKLTVDKSRWQQGNVFSCSVMHEALHNHYTQKSLSLSP light 1: DIQMTQSPSSLSASVGDRVTITCRASENIYSYVAWYQQKPGKAPKLLIYNAKSLASGVPSRFSGSGSGTDFTLTISSLQPEDFATYYCQHHYVSPWTFGGGTKLEIKRTVAAPSVFIFPPSDRKLKSGTASVVCLLNNFYPREAKVQWKVDNALQSGNSQESVTEQDSKDSTYSLSSTLTLSKADYEKHKVYACEVTHQGLSSPVTKSFNRGEC light 2: EVQLLESGGGLVQPGGSLRLSCAASGFTFSTYAMNWVRQAPGKGLEWVSRIRSKYNNYATYYADSVKGRFTISRDDSKNTLYLQMNSLRAEDTAVYYCVRHGNFGNSYVSWFAYWGQGTLVTVSSASVAAPSVFIFPPSDEQLKSGTASVVCLLNNFYPREAKVQWKVDNALQSGNSQESVTEQDSKDSTYSLSSTLTLSKADYEKHKVYACEVTHQGLSSPVTKSFNRGEC"
2.8,0.0136,4.79e+06,0.0097,3.99e-05,4.12e+06,98,95,100,100,101,100,"PLAP H3 CD3opt TCB (bispecific antibody, human IgG1, kappa, L234A L235A, 2+1 IgG CrossFab, inverted) heavy 1: not shown heavy 2: QVQLQESGPGLVKPSETLSLTCTVSGFSLTSYGVSWIRQPPGKGLEWIGVIWEDGSTNYNPSLKSRVTISVDTSKNQFSLKLSSVTAADTAVYYCARPHYGSSYVGAMEYWGAGTTVTVSSASTKGPSVFPLAPSSKSTSGGTAALGCLVEDYFPEPVTVSWNSGALTSGVHTFPAVLQSSGLYSLSSVVTVPSSSLGTQTYICNVNHKPSNTKVDEKVEPKSCDKTHTCPPCPAPEAAGGPSVFLFPPKPKDTLMISRTPEVTCVVVDVSHEDPEVKFNWYVDGVEVHNAKTKPREEQYNSTYRVVSVLTVLHQDWLNGKEYKCKVSNKALGAPIEKTISKAKGQPREPQVCTLPPSRDELTKNQVSLSCAVKGFYPSDIAVEWESNGQPENNYKTTPPVLDSDGSFFLVSKLTVDKSRWQQGNVFSCSVMHEALHNHYTQKSLSLSP light 1: DIQMTQSPSSLSASVGDRVTITCRASENIYSYVAWYQQKPGKAPKLLIYNAKSLASGVPSRFSGSGSGTDFTLTISSLQPEDFATYYCQHHYVSPWTFGGGTKLEIKRTVAAPSVFIFPPSDRKLKSGTASVVCLLNNFYPREAKVQWKVDNALQSGNSQESVTEQDSKDSTYSLSSTLTLSKADYEKHKVYACEVTHQGLSSPVTKSFNRGEC light 2: EVQLLESGGGLVQPGGSLRLSCAASGFQFSSYAMNWVRQAPGKGLEWVSRIRSKYNNYATYYADSVKGRFTISRDDSKNTLYLQMNSLRAEDTAVYYCVRHTTFPSSYVSYYGYWGQGTLVTVSSASVAAPSVFIFPPSDEQLKSGTASVVCLLNNFYPREAKVQWKVDNALQSGNSQESVTEQDSKDSTYSLSSTLTLSKADYEKHKVYACEVTHQGLSSPVTKSFNRGEC"
5.7,0.00167,292000,0.0496,8.91e-05,1.8e+06,97,78,100,99,103,100,"PLAP H4 CD3orig TCB (bispecific antibody, human IgG1, kappa, L234A L235A) heavy 1: not shown heavy 2: QVQLQESGPGLVKPSETLSLTCTVSGGSITSYGVSWIRQPPGKGLEWIGVIWEDGSTNYHSALISRVTISVDTSKNQFSLKLSSVTAADTAVYYCARPHYGSSYVGAMEYWGAGTTVTVSSASTKGPSVFPLAPSSKSTSGGTAALGCLVEDYFPEPVTVSWNSGALTSGVHTFPAVLQSSGLYSLSSVVTVPSSSLGTQTYICNVNHKPSNTKVDEKVEPKSCDKTHTCPPCPAPEAAGGPSVFLFPPKPKDTLMISRTPEVTCVVVDVSHEDPEVKFNWYVDGVEVHNAKTKPREEQYNSTYRVVSVLTVLHQDWLNGKEYKCKVSNKALGAPIEKTISKAKGQPREPQVCTLPPSRDELTKNQVSLSCAVKGFYPSDIAVEWESNGQPENNYKTTPPVLDSDGSFFLVSKLTVDKSRWQQGNVFSCSVMHEALHNHYTQKSLSLSP light 1: DIQMTQSPSSLSASVGDRVTITCRASENIYSYVAWYQQKPGKAPKLLIYNAKSLASGVPSRFSGSGSGTDFTLTISSLQPEDFATYYCQHHYVSPWTFGGGTKLEIKRTVAAPSVFIFPPSDRKLKSGTASVVCLLNNFYPREAKVQWKVDNALQSGNSQESVTEQDSKDSTYSLSSTLTLSKADYEKHKVYACEVTHQGLSSPVTKSFNRGEC light 2: EVQLLESGGGLVQPGGSLRLSCAASGFTFSTYAMNWVRQAPGKGLEWVSRIRSKYNNYATYYADSVKGRFTISRDDSKNTLYLQMNSLRAEDTAVYYCVRHGNFGNSYVSWFAYWGQGTLVTVSSASVAAPSVFIFPPSDEQLKSGTASVVCLLNNFYPREAKVQWKVDNALQSGNSQESVTEQDSKDSTYSLSSTLTLSKADYEKHKVYACEVTHQGLSSPVTKSFNRGEC"
